This passage reports protein production results from a protein production outcome set (Wang et al. 2014).
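Further: failed if final PepcDB status was selected cloned or expressed and not failed if soluble or beyond.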

A short description of this series: label from the status in PepcDB records.
As for “MNFFKILLMELRAIVSHKGVLLILIGAPLIYGLLYPLPYLRDIVTQQKIALVDEDNSFLSRQLAFMAQSSNELEIAFFSPSMLEAKKLLKEEKIYGILHIPSHFEANIHKQVPVTIDFYANSNYFLIYGALANAVVESINALNDEIRFKRNAQIEEAELGTDGIKIRPIALYNPSEGYLNYALSSVFIFILHQVMLIASSMFTSSRRLELALLDRKQIALRLCTRLLVFMGAFSVFILWYFGALFSFYGIERHGSALMVFLNSLIFMLATLSLGSFLGAWIKNEAHTTQIVLISSLPLIFMMGFVWPFESLPSYLQVFVQIVPAYHGISLLGRLNQMHAEFIDVSFHFYALIAIFIASFIGSVFKLSSLKKACENA”, the protein production entry is “failed”.
Take “MNFFTSPFSGIPLDQQVTNPNIIVGKHSYYSGYYHGHSFDDCVRYLHPERDDVDKLVIGSFCSIGSGAVFMMAGNQGHRSDWISTFPFFYQDNDNFADARDGFTRSGDTIIGHDVWIGTEAMIMPGVKIGHGAIIASRSVVTKDVAPYEVVGSNPAKHIKFRFSDVEIAMLLEMAWWNWPESWLKESMQSLCSSDIEGLYLNWQSKART”: the protein production entry was “not failed”.
With “MNFGEAVSSFFRNYVNFSGRASRSEFWYSYLFIIIVGVILVIVDTIVKNEIISSIWNLAALLPTLAMTTRRLHDINRSGWHQLLAWFIPVGSIALIIWYCKKSDDTVTLSEIERVFR”, the protein production entry is listed as “failed”.
In the case of “MNFPHMIPYNAPYYFVLLIAALLPMILTLAIKGTRWPWYQTLVTLVFLYISFGGEFWQQGVALIVYVIYQTLLTWGYAAYRKNKNAGWVFYLAVFLAILPLVWVKVSPFMTGKTTLLGFLGISYLTFKAVQVVMDLRDGVMKEYHPFRYIQFLLFFPTISSGPIDRYRRFEKDLKNPPSAEKYLDFLEKGIFYLFLGFLYKFIISHYLGGVFLPHVEKMALAQGGLSWWTVGYMYNYSLYLFFDFAGYSLLAVGTSYLMGYDTPMNFNKPFLSWNIKEFWNRWHMTLSFWFRDYIYMRLMFFLMKKKVFKSRIVTSNIGYFALFLIMGIWHGLTWFYIAYGLYHATLICVTDAWLRFKKKHKDKIPSNKFTHAFAVFLTFQAVCVSFLIFSGFLDKLWFK” it was “not failed”; in that of “MNFPIDEKLIREKQNELHIKDLGMASIRDLVALVTNLEKATGTKFCRMEMGVPGLPAPQIGIETEIQKLREGVASIYPNLDGLPELKQEASRFAKLFVNIDIPARACVPTVGSMQGCFVSFLVANRTHKNREYGTLFIDPGFNLNKLQCRILGQKFESFDLFEYRGEKLREKLESYLQTGQFCSIIYSNPNNPTWQCMTDEELRIIGELATKHDVIVIEDLAYFGMDFRKDYSHPGEPLYQPSVANYTDNYILALSSSKAFSYAGQRIGVLMISGKLYEREYPDLEESFGRLRFGEALSSSALYALSSGATHSAQWGMAAMLKACNDGEYNFRDSVIEYGRKARIMKKMFLDNGFNIVYDKDGNEPLADGFYFTVGYKGMDSSKLIEKFVRYGMCAITLKTTGSKRNEAMRICTSLLPESQFPDLEKRLQMLNAEG”, “not failed”.
To “MNFVTLTSDEFNAFTTKHFSHYTQSAIHYNHRVDLKGDVHLVGVKDDNGQVIAGCLLTEARTLKFFKYFYTHRGPVMDYTNQSLVAFFFKALTSYLKKHNCLYVLVDPYLIENLRNADGEIVKSYDNRAFVRTMDKLGYKHQGFPVGYDSMSQIRWLSVLDLKDKTEDQLLKEMDYQTRRNIKKTYDIGVKTKTLTIDETQTFFDLFHMAEEKHGFKFRELPYFEEMQKLYDDHAMLKLAYIDLNEYLKTLQLKQQQLTAELSGVEEALEESPNSKKNKTKRTQLEQQLNSNKRKIDNTIEQIEQDGAVLNLASALFIYNEHEVYYLSSGSNPKYNAYMGAYHLQWEMIKFAKAHHIDRYNFYGITGDFSESSEDYGVQQFKKGFNAHVEEYIGDFIKPIKPLLYKVQTYLNHKRR” belongs “failed”.
Take “MNGAVDLVIRFLLFAMLHSIAALPGVQQRIGNMFPRGFRFYRAAYNLAALVTFGWVMAAWPLSPVIYLVPGSASLAFHAVQAFTLLQMIRCVSRTGMADFLGIRHPSREDAAHELVTTGCYGTVRHPLYTLAMVFCLFNPLMTVKWLLFTLMAGGYFVMGAVVEERRLEREFGDAYRSYRRQVPMLIPRRRKPVAKE”: the protein production entry is reported as “failed”.
In the case of “MNGDSKPYPLIVQQVMLFTTHPAHGVKAGMAKALHMIHAGRKVLVFIALLVSASLAMADVAIPPLKARVTDLTGTLSANEATQLEQKLAAFEARKGSQIAVLIVSTTQPETIEQYSIRVVDAWKLGRKGIDDGVLLLVAKQDRTVRVEVGYGLEGVLPDAVAKRITDEIIVPEFRQGRFAAGINAGVDRIIGVIEGEPLPPPPARSARGGDSSAAADILVNNIIFVFILLFIAAKVFQSIFGRFLGATLLSTAAAIIVWLVFASIFLALIAAAFAFFISLFGHAGSGIYRGGRGWPGGFGGYGGWGGRGGPGGFGGGGGFGGGGGGFGGGGASGRW” it was “failed”; in that of “MNGFIPIIASIAISLPLLIFGSHSDVKKRSINSFTFLPIFILALAFYILDKDVVMSIVTILSTVAVFIKPNIYVYIVLPLIIIGIGFFDTINLLTILIVGMFLLTGFGELLFGIGDIKGIVSVVLLFSSIPRFNNYIPFSIVFVFFIAVASGGALLYFVVYARLNGLKLRGLNVLYDEHEYLRNTIKYQLKDTNSGKVMIYRVPFLVPILVSTVLSLIAQLIIYASIHT”, “failed”.
To “MNGGKTAVIVLGWNGAADTLACLASLAKVRQPAFTVILADNGSTDGTVGLVRQAFPEVEILELGRNLGFAAGNNAAFRSLRGRGFDRVVFLNNDTVVDPGFLQPLLDELQKPWVGIAAPKILYMDDPGRIWYAGGVLESATGLIEHTGIRQPDGPRFDTPEPVWYATGCCLAMRCRVFEEVGGFDERFRMYGEDVDLSMKVRERGLIVMYQPASRIWHRVSASSGGEMNLGKQLRKSGAAMMLFAKHGMIGGLVLYPLLLPFRALLGLLRFQFFRWTSSQEREEA” belongs “failed”; to “MNGGTFTTGKEKERAGIYFNFKTTAQERVSLSERGTVALPVASSWGEAKTFVSISSVEDLNKKVGLSIDDPSLLLLREAKKNAKTVLMYRLTEGVRASADIAEGVKATAVYGGTKGNDIIIRINQNVLDANSFDVTTYMDESEVDKQTVKKAEELTANGYVTFTGTGDLSSTIPLTGSEGDTAAETLNASAGIRLSGGTDKAPVNSDYTDFLAAAETESFDVIALPVAEGDQLKATFAAFIKRLRDGQGQKVQGVTANYAGDYEGIINVTEGVLLEDGTEVTPDKATAWVAGASAGATFNQSLTFVEYEGAVDVLHRLDHDTIVERLGKGEFLFTFDARDKSVSVEKDINSLVTFTAEKNKKFAKNKIVRVLDAVNNDLTRELKALIKSRKGSGSDIPASEDGLQYVKTMITQYMTTLQDAGGITGFDSDEDITISMNEDRDGFLIDLLYSLSTQQKNSTLMWRLEHHHHHH”, “not failed”.
On to “MNGRRTIGEDGLVFGLVVIVALVAAVVVGTVLGHRYRVGPPVLLILSGSLLGLIPRFGDVQIDGEVVLLLFLPAILYWESMNTSFREIRWNLRVIVMFSIGLVIATAVAVSWTARALGMESHAAAVLGAVLSPTDAAAVAGLAKRLPRRALTVLRGESLINDGTALVLFAVTVAVAEGAAGIGPAALVGRFVVSYLGGIMAGLLVGGLVTLLRRRIDAPLEEGALSLLTPFAAFLLAQSLKCSGVVAVLVSALVLTYVGPTVIRARSRLQAHAFWDIATFLINGSLWVFVGVQIPGAIDHIAGEDGGLPRATVLALAVTGVVIATRIAWVQATTVLGHTVDRVLKKPTRHVGFRQRCVTSWAGFRGAVSLAAALAVPMTTNSGAPFPDRNLIIFVVSVVILVTVLVQGTSLPTVVRWARMPEDVAHANELQLARTRSAQAALDALPTVADELGVAPDLVKHLEKEYEERAVLVMADGADSATSDLAERNDLVRRVRLGVLQHQRQAVTTLRNQNLIDDIVLRELQAAMDLEEVQLLDPADAE”, for which the protein production result is on record as “failed”.
“MNGSADAGPRPRKYVFITGGVVSSLGKGILTSSLGALLRARGYRVTAIKIDPYVNVDAGTMRPYEHGEVFVTADGAETDLDIGHYERFLDMDLSRGNNLTTGQVYLSVIQKERRGEYLSQTVQVIPHITDEIKERIRKVAEEQKAEIVVVEVGGTVGDIESLPFLEAIRQFRFDEGEGNTLYLHLTLVPYLETSEEFKTKPTQHSVATLRGVGIQPDILVLRSARPVPEEVRRKVALFTNVRPGHVFSSPTVEHLYEVPLLLEEQGLGRAVERALGLEAVIPNLSFWQEAVRVLKHPERTVKIAIAGKYVKMPDAYLSLLEALRHAGIKNRARVEVKWVDAESLEAADLDEAFRDVSGILVPGGFGVRGIEGKVRAAQYARERKIPYLGICLGLQIAVIEFARNVAGLKGANSTEFDPHTPHPVIDLMPEQLEVEGLGGTMRLGDWPMRIKPGTLLHRLYGKEEVLERHRHRYEVNPLYVDGLERAGLVVSATTPGMRGRGAGLVEAIELKDHPFFLGLQSHPEFKSRPMRPSPPFVGFVEAALAYQERA”: the protein production entry is listed as “not failed”.
With “MNGSEFVPLSLTPLLIGVLAAVACALPGNFLVLRRQALIGDAISHVVLPGIVVAFLLTGAIAAWPMMLGAAGAAVVAVVLIEAIRRLGRIEPGAAMGVVFTTMFAAGVLLLEQTDTSTVHLDVEHALYGNLESLIWLDATGWASLLDPVALAGLPVELSRILVTLVGVVGFIWLFWRPLKLSTFDEGFARTLGIRTNLLGLALVIVAAVAAVAAFDAVGSIIVIAMFICPPAAARMMTNTLEGQVGWSVVFAILSAVLGYVLAGYGPLWLGARDAVSAAGMIATMSGLILALTARFGPCRSRTGAPVQA”, the protein production result is “failed”.
In the case of “MNGSLQRSHMEIVPDTSVVIDGRVSDQVKADADPDTDVDGMGFAGATVVVPEAVVGELEAQANDGRETGWEGLEELQTLVDLAEEGTIDVEYVGRRPDAIEKREAGEGQIDALIRDIAGDRDATLVTSDDVQAEVARAKGLAVEFVDPVKRTVDRLQI”, the protein production entry is recorded as “failed”.
On to “MNGSLQTADRTPVDYVNPYIGNISHLLVPTFPTIQLPNSMLRVYPERADYTSELLKGLPLIVTNHRERSAFNFSPYQGEKLRPVITYNYDNEHITPYSFDVELDDNRMKAEYALSHQSAIYRITYEADKPAYLIVNSRNGSIHANENFISGRQQLNDNTNVYVYIEAQEKPLEHHHHHH”, for which the protein production result is listed as “not failed”.
In the case of “MNGYTISAIYAHIASGISLEKRKGFFEMLDEIINNKVEKVIITYKDRLSRVGFDLFSYLFRKYRTEIAVISEVGNTKLDSEEVFEEIVSMLHSYSMKMYSKRKNHYIEVGYEG” it was “failed”.
As to “MNHDIDIKKVRLNCFRQSKVPGEFMLQMRIPGGIVDAKYLSQIQEIAETWGNGTFHMGMRQTFNIPGIKYENIQAVNKFIENYLQEVEVDRCNCDMKVDENGYPTIGARNVMACIGNSHCIKANVDTKDMANKIEKLVFPSHYHIKVSVAGCPNDCAKGHFQDFGVIGQARMEYHEERCIGCGACVRACEHHATRVLSLNDKGLVDKDPCCCVGCGECVLACPASAWTRKPEKFYRIVIGGRTGKQTPRMGKTFINFATEEVVLGIFANWQKFSAWALDYKPEYLHGGHLIDRAGYHKFKEIILDGVELNPEALVADNIFWAETEYRSNFNVKPIKMHKTIESNRPLRLEHHHHHH”, the protein production result is on record as “failed”.
In the case of “MNHEAVQNYYGEVLQSSADLQTNACCTPDAVPAHLKPVLGKLHDEVMARYYGCGLIAPLALEGARILDLGCGAGRDVYALSALVGESGAVVGVDMTPAQLEVAQAHRAYHAEVFGHAAPNTEFHQGYIEKLDDLPLKPGSFDIIVSNCVLNLATDKAAVLRGAQRLLKPGGEMYFSDVYADRRIPEALARDEVLYGECLSGALYWNDFLSLARGAGFGDPRMVESRLLTIENPELERRVGPIRFLSATYRLFNLAGLEPDCEDYGQAVIYKGTVPHAPHEFVLDDHHVIETGKVFPVCGNSWRMLAESRFAPHFQFIGDFSTHYGIFAGCGGASPFNGLSPVAPAASGGCC” it was “failed”.
